The data set is described as follows: protease stability score; higher = more stable; yeast display proteolysis, trypsin and chymotrypsin.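 Note: log10 excess protease needed over predicted unfolded state with 0 meaning unfolded.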
Turning to “DETNERVARTMLEVRQHNNPDDLRKMLDPNVKVVIGDKEVHGREDYINKFEERVKHIRVDVKVDHIDSQGNRLDIDVTFTMNVNGQPVKDRMRFVIQITNGKIEEVDVSVPEEELKKQEK”, the protease stability score was determined as 0.909.
Next, “DETNKEQFDRLLKHQKTGNPQEVVKNADPNVKMRIGNKTWHGRENINQDVERRRRKMRIDINVKSVDSHGEELRIDARVQYNINGKPLEDDVVIIAEVHNGKFKHIEVRIPERMQKKLER”: 0.637.
The sequence “DETNKKAVEDYIKALETGDDEMAKRLMDKNATVEIGDKEVTGREEIHEQFKRDVKEIRVRIDRVHVKDQGDKVNLRAREKQTVNGHPISFEFQVEFHAHNGKIKHVEWQIDKDQLRKLKG” returned a protease stability score of 0.119.
“DETNLKKVLDVLKDNDEKKLEELADEDAKNDIGNFDYRGRRQFEEAMRHRRKMIDSLEVKSVRADGDKAEIDMSAVINGREVKASQMVKVHNGRIKSISVRFTDPDKEREADKKAQ” displayed a protease stability score of 0.023.
Consider “DETNRKQASRVLENLQTGDPRQVSELVDPNARVTVGDKQVTGRENIMQRVKHELDQSRIQIDHYEIDDKGESADLRMTQQVDHNGNPTRTKYQVEVEAENGKIKEITIEERS”, for which the protease stability score was -0.271.
Next, “DETNVKNAEEWLRALQDNNSEQLRKLMDKDVRVEIGDDVIKGREDVVTNLIRKARELRFRIKVDKIEDDNGKVVVHAEATFTHNGKPDRVEVELVFSLDNGKIKEVVVKTDG”: 1.69; “DETNVRSVERFVHALKQGDPDKLHRNADPNVKVQIGDKVIHGREELSKDQKRRNKSMRLSYKDYRNEDTNGNVIVHLTFTSERDGQPRENEYRAHITLNNGKIREVDMKSDG”: -0.288.
Next, “DETQDKKAERLVKKNNWDEMVRNADKDVRVQVGDYEVHGREDMKRLAKKFKDRYDHVKVDDVQVHNGRVNADMKATVDGHTIRFILQADIHNGRFKYMTLQARSSEQEKHLKRLFQ”: 0.475.
For the sequence “DETQLRIASEFEEAVRRGNEEQAKRNVDPNARVRVGDTEVHGNEQIAKKIRQEVEHARVSVKSVTNHTDENRVVIDVEFEATHNGEPTSKKYQVNIEIRNGKIKEINYHDSK”, the protease stability score was -0.157.
For “DETQMDHIRRFFEAVVNGDPDELERQADPNVKFSVGNQQWHGENQLKKEAEKRRKEIRINIKSMEVRVHGDSVVVHIRQEVEVNGQPEDITFTMTVEVSNGKIKSVDVQMDQQEERNVQR”, the protease stability score is -0.342.
The sequence “DETQMKHLAEEFNKAQKRGNEEKLRELIDKDVTMKVGDKEVHGRERVADKMRKMIERADSISIRDVKSQGDRAEIDMEYRVDGRHRVVIVILRFSNGRIVYAEFQSS” showed a protease stability score of 1.08.
On to “DETQRAEEFFKRMQKLAHTNNFEHLANMADPNANFRVGDKTFHGRRDMIRQQKQIRERVDHVEYDVRRIDVHGNELDIKLEVNYDVNGKKDTRTVHYNAENNNGDVVISRVEYK”, for which the protease stability score amounted to 0.127.
Next, “DETREAQEIAKRIHKAVEENDEKQLEDQMPPDASVEVGDKTIHGRSRIARELWEEVETADHVNVSITSIRVDGDKVHVDMRYQFDDNGDDDVKHQKAQYVRNGDHFVLKNVHRK”: -0.225.
As for “DETRMRELDKVFHHNDPDKMRENLDENVRMVVGDKSFTGRHQVQDWLKIFHDQVDHFEVESLTKEGNKIDVVYRAVVNGQEFRMRVDITVHNGRIKMIKVDFTNEDETRQFLEHIK”, the protease stability score came to 1.55.
Consider “DETRQAKDMVSELRKALKQGDEDKAMKLADPNVRLDVGEKDLHGRERLKEWVTEIRDKYDRVDLKVTHVHVRGNKIVVHAEVVMRRNGHQKTMTLTIVVRLQGDHLHIVEITQR”, for which the protease stability score stood at 0.803.
Next, “DETTEASKLLHRINTAWQTNDPDQFQEQFDENARAKVGDKTVHGRKNMNELLKRLVENVDHIDVQVVDFRVDGDKLVIYFRVQNEHNGKHEHDQYAIWAVDRNGHVRAIEWHES”: 0.272; “DETTVHHILKNFNEAMEQGDPKQAMRLADKDVKLDVGDKRVSGSETLDTLVKNIRDQADTISVKTVHVDGDTAHAVLVIRINGKDVEFNVRIEVHNGRIKSLEMDPDKLKSAMK”: 0.852; “DETVEELIKRFMRAIKNNNPDELVRNADKDAKYDIGDKTIHGREQLHDHVEHLRDEMQIDYEVENLKVHNGRADVDVKNNNNHNGRPETKRLRLDVVVHNGKIKDVKFQDTR”: 0.243.
Sequence “DETVLQVVHRFLKAVETGDPKEVRKNADPNAKAVVGDQTVSGRETLAHQIEREREEMSFEWEKVTNDVQGEHVDVDFTMRMTHNGRPDRSRVRIKYQVHNGKLTYVRVTDDK” gave a protease stability score of -0.149.
Sequence “DEVEKAKNLFDRLVRAFKNNNWKQFSDLADEDVRYVVGDKEWHGREQADEMFREMVEEIDHYDIHVKDIKFHNGKVDLKATASFSVNGKTHRFTVEWRVQMHNGHLRVKQVILK” yielded a protease stability score of 1.25.
Then “DEVTRAEELLHEIQEAFRTGDEDQARRLADENVQIHVGDKFVRGRRDYVKRLKDEVDRVDHMEVHIKSVDVHGDKATMDYRVRVQFDGQSKERDVVMYAKISNGQLKVTSLTEK”, with 0.012; and “DHDAAHQFKKMLDALRTNDEEHARRMADPNAKFQIGDKTYKGMDTFIRQLVREAREIKIHIDDIKVHDKGDKAVLNVNVKFSKNGEPDSRVLNFEFRAHNGHLKEIVVRDDK”, with 0.757; and “DHDAKKRIHQLWHALQTGNPDEVVKQVDKDVKVRVGEKDIHGRDQVREDVEREQKDMRVEYKSIRVEMNGDKARVEVHYQHERDGQPRTHRADYEIKWQNGKVKEMRASQKP”, with -0.244.
Next, “DHDALERFQEFLENLKSGNPHDLHNMLDKNASLQVGDKTVTGRDQIVDHWRRQREEWEVTYRSVDLKVSGDTVKADFDFQVDINGQPNRVSRQAHVKISNGKLKTLQYRVSEDVKRNIEG”: -0.254; “DHDALKRASQFLKAMEQGNEREAVRLVDENARVRYGDKQIHGNKQIRDWVRKMHEQARIRIEVTRVQATGDTVTVTAKVDVDVNGKPQTHDMVFRARVHNGHIKSAEFHFDEEFEKRMNS”: 1.32; “DHDALRHATEILRARKTGDDKRIRELVDPNAHVVIGDKSLHGREQIVKFVTKENEEMSIQYRHVSTETRNGRVDIRMDADMRKNGTPDRVRQEMKAEFHNGRLQRMSVHDDK”: -0.331.
“DHDAVRQARELYKVWQTGDPDKVRNMLDPNVRFRIGDKEIRGRESFAEELITQIKQSHVEVRHYSANANGNNVKARANVVIHVNGRPHEFSFIFRARVENGKFKQISVQVDDDLLRKLES” registered a protease stability score of 0.548.
Then “DHDIRELFKRLVDAISTNDPQTMNNNMDKDVEARVGDQDYKGRENMAHELVKTREKIRLEMHLNSLNNEGDYVRVEVEQVLEDNGQPDRSVMDAEWRADNGRVQEYHVDEKP”, with -0.146; and “DHDKQEFWNHLVEIFKSGNEDDWRKNFDPNAKWHIGDKRVHGREEAVEDFRRRREELRQNIESFTVDARGDKVTVHQVFVVEINGHPRRMSVNIRAKVHNGQIKEMDVRLSDEDKKKEKG”, with 0.478.
Next, “DHDLLTKIKTILELIKTGNFEEVRKNFDPNVDVHVGDKTIHGRERWAKELDKEVRELRWDIKIKRVKDRGDRAHFDMEATFEVNGRPANFRANMVVHMHNGRVKHMNIKIPEEDLKRQKS”: 0.823; “DHDLNQQAQQWVRNFNNGDEDKLQDYADPNVRFQIGDEQVHGREEYKSRVKKKRKHARFRIRVREIDAQGEHVHVKADIIQNINGRPMDDHVIFHFEVRNGKLKSLKLRVDPEKQRELEK”: 0.417.
On to “DHDLQKTWKDQAAEALQTGDPREFEKMVDENVNVIYGDKTYHGRKQASNLAQRLQKQIDHIRLHSVSIRGDEVNVDLTVNVNGTEMRYHMTARVHNGKVKELKFDPDFVRKAQK”, for which the protease stability score turned out to be 0.174.
Then “DHDLVKHLESFIKNLQDGDDDKLAKYADPNAHIEVGDKVVSGRKQLQEEVRRQRKRMRISLDVKDVKAHNGQADVTFDQRVEVNGRPWQNRYTVIFFLHNGTLREARFDIPEREQRKLES”, with 0.189; and “DHDQRRQAKEMVHAMTKGDEDRLRELLDENAKADVGDSKVHGRTQFLRELRTTMEQSQLRLDSFDVKVKDGRVRMRFSFVEDHNGRPNHKNAELQLRLDNGKVQEVRQRDDG”, with 0.539.
Next, “DHEAEKRIKKWVDAIHTGDEEQLKRLADPNVKVNVGNYSVRGRENLADMVSRMRDEIRLTYRDVKMDVTGDHARMDADVERDHNGRPERFELKANFRWRNGKITEIDAHWHQ”: 1.42; “DHEAEKRWTKLQEAIKYNNPQEAKHQMDPNARVRVGDKEFHGMDDFAKYQLDHQRKIEVDRKVKKVDVKNGSVKVVQDVENNNNGTPSRHVMDLRVEVHNGHIRNVRAETDK”: -0.295; “DHEAKDVFEELLRRMKSGDEDEMKKLVDKNVRYTVGDKTLHGQEEIARHWYEQVKDMRIDIKVKDIKVHNGRVDVKFTFRHEHNGNPDSDKRRVNVEARNGKMQAVDDQKDS”: 0.148.
In turn, “DHEAKEIAEKIQRALTSNDPDHLNRQLDPNVRLQIGDKEVEGRQEAHNWLQKVVDEQEISINISDINVNGNHIRIHAVVENQVNGRPFHYEVVIIIIIHNGRVRSQRYQLDEDQDRRIKQ” yielded a protease stability score of 0.047.
For “DHEALKVLHKFMEALNTGDPDQLNKNIDPNARFVVGDKTINGREQFREDQRRLKEQIRVYATIRTIRVEGDHANLTVEYEQDHNGKPDSNEVTVTAKLKNGKIQEVREDRKQ”, the protease stability score was -0.18.
Next, “DHEANQIAREFVKAIRTNNPTRASQNMDPNVRVTVGDHVFHGREEVKTWIHRLNKEARIDIHINTIESQGDNAKVVFKYRVEVDGRPDSRNVIVDVHAHNGKMKEVVYRVDEDEQHELKK”: 0.368; “DHEAQENAKHFIDALHTNDPRQVVEMIDPNARVNVGDKQLRGDSQVRKWWRRQNEEIRMHVKVDDIKVKGNNAVAKFKMEITHDGTPNDNHAEMTVTFHNGRATDLKVDEDK”: 0.017.
Next, “DHEAQKALRDVIEAIRENNPDEVKKQLDKNATVRVGDKRLHGTEEQRREVQKKLDEIRIRYQDIKMETSGDTVRASIQFVENHNGEPQRDRVTASMSADNGRVKHFVVTETQ”: -0.041; “DHEAREIVEEYLKAIERNNPKKAQELVDPNVHFHYGDKRLDGREDLNEKIHRETKHQRVDIKSVSIDVQGDKVDVKVDVVDVHNGQPERYTFEVTYTFKNGQIQNADQKESG”: 1.02.
Next, “DHEARKLMKRFFSAINHGDPDQIRKNVDKDVKAQVGDKTVHGREEWVKWMTRRLDEIKMHYDVTTIDVQGDKVHAQAKVRYDVDGRPITDQVTFTARIENGKITSLSLRMDPENQQKIEK”: 1.15.
“DHEARKVVKRFWEAWETGDPEELNKQVDPNVHVQIGDTRLKGRDDVVRHLLEERHEMRVDLDSMDVKATNGQVNARATARADVNGQPVTFSMEFRFKVRNGKITHIDWQFSDEDHRKRKG”: the protease stability score is 0.81.
For the sequence “DHEAVKLMERLIEALNTGDPDQLRRLADKDVRWRYGDKDVHGRESVVTQLKKRLEQSRFKVTDVDIKAQGDNVTADYRVIFEHNGKPDDVTVKVEAKVHNGRIKMMKIQTDK”, the protease stability score was 0.623.
Next, “DHEDAEKMKDLLTAEQQNDPDKVKEQADPNAQFRIGDQKVHGRNQYARIVKTLMERADVHILRIDNKDHNGQVHVSIDRVIDYNGRPKRDTETATARFHNGRLKELHIQFDPKKYQELKK”: 0.027.

(Values after the NTF2 design screens of Basanta et al. (2020).)
